Consider one protein from paper PMC3623789.

The data set can be described thus: confocal imaging, co-localisation with Na+/K+-ATPase, HEK293. The settings on record: glycan lost; control: wild-type 3xFLAG-rPRG3.

B1: rPRG3 (plasticity-related gene 3, LPR1): N163Q (protein)
parent chain: MAVENNTQRSYSIIPCFIFVELVIMAGTVLLAYYFECTDTFQVHIQGFFCQDGDLMKPYPGTEEESFISPLVLYCVLAATPTAIIFIGEISMYFIKSTRESLIAEEKMILTGDCCYLSPLLRRIVRFIGVFAFGLFATDIFVNAGQVVTGHLTPYFLTVCQPNYTSTDCRAHHQFINNGNICTGDLEVIEKARRSFPSKHAALSIYSALYATMYITSTIKTKSSRLAKPVLCLGDLCTAFLTGLNRVSEYRNHCSDVIAGFILGTAVALFLGMCVVHNFKGTQGSASKPKPEDPRGVPLMAFPRIESPLETLSAQNHSASMTEVT
Consider B1, for which the localisation_or_trafficking entry is listed as “abolishes”.
